Assay results taken from patent publication US20220106398A1 (IGM BIOSCIENCES, published 2022).
Where a chain is given by its changes, count along the chain named.

T1: human His6-GITR (human, UniProt Q9Y5U5 26-162)
T1 construct: His6-tagged recombinant protein; also called hGITR-His; human GITR-His
T1 sequence: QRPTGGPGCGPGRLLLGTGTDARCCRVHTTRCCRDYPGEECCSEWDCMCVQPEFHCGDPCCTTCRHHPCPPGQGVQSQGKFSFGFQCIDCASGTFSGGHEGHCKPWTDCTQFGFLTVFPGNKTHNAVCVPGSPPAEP

T2: mouse His6-GITR (mouse, UniProt O35714 20-153)
T2 construct: His6-tagged recombinant protein; also called mGITR-His; mouse GITR-His
T2 sequence: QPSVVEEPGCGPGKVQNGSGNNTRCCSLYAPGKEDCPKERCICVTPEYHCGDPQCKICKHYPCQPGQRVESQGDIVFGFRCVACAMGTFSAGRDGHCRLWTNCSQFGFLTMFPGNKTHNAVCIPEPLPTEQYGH

T3: cynomolgus monkey His6-GITR (cynomolgus monkey)
T3 construct: His6-tagged recombinant protein; also called cGITR-His; cyno GITR-His
T3 chain: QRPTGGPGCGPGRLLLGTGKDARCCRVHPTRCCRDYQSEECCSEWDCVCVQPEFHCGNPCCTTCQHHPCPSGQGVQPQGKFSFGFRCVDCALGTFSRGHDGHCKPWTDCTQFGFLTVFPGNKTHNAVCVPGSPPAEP

B1: GITR-Mab-3 scFv (scFv, V domains shown)
VH: QVQLVQSGAEVKKPGASVKVSCKASGYTFTSYDINWVRQAPGQGLEWMGWISGYNGNTNYAQKFQGRVTMTRDTSTSTVYMELSSLRSEDTAVYYCARSHEYYYYYGMDVWGQGTLVTVSS
VL: EIVMTQSPATLSVSPGERATLSCRASQSVSSSYLAWYQQKPGQAPRLLIYGASTRATGIPARFSGSGSGTEFTLTISSLQSEDFAVYYCQQYYTTPFTFGPGTKVDIK
notes: scFv in periplasmic extract, V5 tag
B2: GITR-Mab-17 scFv (scFv, V domains shown)
VH: QVQLVQSGAEVKKPGASVKVSCKASGYTFTSYGISWVRQAPGQGLEWMGWMNPNSGNTGYAQKFQGRVTMTRDTSTSTVYMELSSLRSEDTAVYYCARLGLWFGEYQYYFDYWGQGTLVTVSS
VL: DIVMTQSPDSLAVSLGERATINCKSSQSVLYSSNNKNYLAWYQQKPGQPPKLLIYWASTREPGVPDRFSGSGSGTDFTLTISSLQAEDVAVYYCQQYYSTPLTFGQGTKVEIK
notes: as for B1
B3: GITR-Mab-8 scFv (scFv, V domains shown)
VH: QVQLVQSGAEVKKPGASVKVSCKASGGTFSSYVISWVRQAPGQGLEWMGWMNPGSGNTGYAQKFQGRVTMTRDTSTSTVYMELSSLRSEDTAVYYCITDSEDDYWGQGTLVTVSS
VL: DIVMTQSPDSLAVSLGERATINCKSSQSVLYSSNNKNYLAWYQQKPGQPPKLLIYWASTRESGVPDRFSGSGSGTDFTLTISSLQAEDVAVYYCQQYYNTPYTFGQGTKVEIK
notes: as for B1
B4: GITR-Mab-7 scFv (scFv, V domains shown)
VH: QVQLVQSGAEVKKPGASVKVSCKASGGTSSTYAVTWVRQAPGQGLEWMGVINPNDGSTTYAQNFQGRVTMTRDTSTSTVYMELSSLRSEDTAVYYCARWTPLFGVVIPDYYYYGMDVWGQGTLVTVSS
VL: DIQMTQSPSSLSASVGDRVTITCQASQDISNYLNWYQQKPGKAPKLLIYAASSLQSGVPSRFSGSGSGTDFTLTISSLQPEDFATYYCQQSYSTPPTFGQGTRLEIK
notes: as for B1
B5: GITR-Mab-5 scFv (scFv, V domains shown)
VH: EVQLLESGGGLVQPGGSLRLSCAASGFTFDAYAMHWVRQAPGKGLEWVSAIGTGGDTYYADSVKGRFTISRDNSKNTLYLQMNSLRAEDTAVYYCARDLYGSGSPQYYYYYGMDVWGQGTTVTVSS
VL: B4 VL with Q24R, D28G, S30K, Y32D, N34G, T94V, P96F, R103K, L104V
notes: as for B1
B6: GITR-Mab-6 scFv (scFv, V domains shown)
VH: QVQLVQSGAEVKKPGASVKVSCKASGYAFTAYYLHWVRQAPGQGLEWMGWMNPNSGNTGYAQKFQGRVTMTRDTSTSTVYMELSSLRSEDTAVYYCAREGWGYYDGGFDPWGQGTLVTVSS
VL: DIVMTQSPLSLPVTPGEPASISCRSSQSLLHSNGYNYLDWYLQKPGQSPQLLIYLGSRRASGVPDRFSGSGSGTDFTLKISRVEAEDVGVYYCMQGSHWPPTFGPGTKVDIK
notes: as for B1
B7: GITR-Mab-43 scFv (scFv, V domains shown)
VH: QVQLVQSGAEVKKPGASVKVSCKASGYTFTSHDIDWVRQAPGQGLEWMGWMNPNNGNTVYAQRFQGRVTMTRDTSTSTVYMELSSLRSEDTAVYYCARWKVYSGSYYGGAGYFDLWGRGTLVTVSS
VL: DIQMTQSPSSLSASVGDRVTITCRASQSISSYLNWYQQKPGKAPKLLIYRASHLEGGVPSRFSGSGSGTDFTLTISSLQPEDFATYYCQQADSLPLTFGQGTKVEIK
notes: as for B1
B8: GITR-Mab-48 scFv (scFv, V domains shown)
VH: QVQLVQSGAEVKKPGASVKVSCKASGYSFTSHDIDWVRQAPGQGLEWMGWINPNSGGTNYAQKFQGRVTMTRDTSTSTVYMELSSLRSEDTAVYYCARIRGYYGSGSYHDAFDIWGQGTTVTVSS
VL: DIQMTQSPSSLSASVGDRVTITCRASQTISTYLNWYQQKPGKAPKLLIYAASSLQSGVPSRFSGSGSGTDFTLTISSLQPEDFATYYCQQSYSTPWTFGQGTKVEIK
notes: as for B1
B9: GITR-Mab-46 scFv (scFv, V domains shown)
VH: QVQLVQSGAEVKKPGASVKVSCKASGGSFSNYAINWVRQAPGQGLEWMGWMNPYSGNTGYAQKFQGRVTMTRDTSTSTVYMELSSLRSEDTAVYYCAREITANYYYGMDVWGQGTKVTVSS
VL: B4 VL with A50E, S53V, Q55E, S93T, P95Q, P96Y, R103K, L104V
notes: as for B1
B10: GITR-Mab-42 scFv (scFv, V domains shown)
VH: QVQLVQSGAEVKKPGASVKVSCKASGYIFTNYWIQWVRQAPGQGLEWMGWINPHSGATKYAERFQGRVTMTRDTSTSTVYMELSSLRSEDTAVYYCARGLGSAFDIWGQGTMVTVSS
VL: not shown
notes: as for B1
B11: GITR-Mab-47 scFv (scFv, V domains shown)
VH: QVQLVQSGAEVKKPGSSVKVSCKASGGTFSTYAINWVRQAPGQGLEWMGIINPTDGDTSYAQKFQGRVTITADESTSTAYMELSSLRSEDTAVYYCARAAYYYYGMDVWGQGTTVTVSS
VL: not shown
notes: as for B1
B12: GITR-Mab-41 scFv (scFv, V domains shown)
VH: QVQLVQSGAEVKKPGASVKVSCKASGGSFSDYAVSWVRQAPGQGLEWMGWMNPNSGNTGYAQKFQGRVTMTRDTSTSTVYMELSSLRSEDTAVYYCARELVRDGYNFALDYWGQGTLVTVSS
VL: B4 VL with Q24R, S30R, Y32D, N34A, Y92F, P95F, P96Y, R103K
notes: as for B1
B13: GITR-Mab-44 scFv (scFv, V domains shown)
VH: QVQLVQSGAEVKKPGASVKVSCKASGYTFTSHDIDWVRQAPGQGLEWMGWINPSGDSTSYAQKFQGRVTMTRDTSTSTVYMELSSLRSEDTAVYYCARYYGGNSYAFDIWGQGTMVTVSS
VL: DIQMTQSPSSLSASVGDRVTITCRASESISPWVAWYQQKPGKAPKLLIYAASTLQSGVPSRFSGSGSGTDFTLTISSLQPEDFATYYCQQGTSTPYTFGQGTKLEIK
notes: as for B1
B14: GITR-Mab-26 scFv (scFv, V domains shown)
VH: QVQLVQSGAEVKKPGASVKVSCKASGYTFTSYGISWVRQAPGQGLEWMGWMNPNNGNTVYAQKFQGRVTMTRDTSTSTVYMELSSLRSEDTAVYYCAKDSDWYGAFDIWGQGTMVTVSS
VL: B4 VL with D28S, N31R, Y32W, N34A, A50S, P96W, R103K
notes: as for B1
B15: GITR-Mab-23 scFv (scFv, V domains shown)
VH: EVQLLESGGGLVQPGGSLRLSCAASGFPFSTYAIHWVRQAPGKGLEWVSAISGSGGSTYYADSVKGRFTISRDNSKNTLYLQMNSLRAEDTAVYYCAGPDWYFDLWGRGTLVTVSS
VL: B13 VL with E27Q, S28A, P31N, W32S, V33L, S56R, G91Y, T92Y
notes: as for B1
B16: GITR-Mab-25 scFv (scFv, V domains shown)
VH: QVQLVQSGAEVKKPGASVKVSCKASGGTFSSYAISWVRQAPGQGLEWMGWVSGYNGNANYAQKFQGRVTMTRDTSTSTVYMELSSLRSEDTAVYYCARDRVESGYSYHDAFDIWGQGTMVTVSS
VL: DIQMTQSPSSLSASVGDRVTITCRTSQSIRRYLNWYQQKPGKAPKLLIYAASSLQSGVPSRFSGSGSGTDFTLTISSLQPEDFATYYCQQSYSIPWTFGPGTKVDIK
notes: as for B1

These binders were tested against T1, human His6-GITR (assay: CARTERRA LSA, scFv periplasmic extract).

Kd [nM]	Binder
10.5	B1
24.5	B2
49.6	B3
11.5	B4
8.3	B5
0.1	B6

Each binder was assayed against T1, human His6-GITR (assay: ELISA, scFv periplasmic extract on coated His6-GITR).
Description: (§1) The SuperHuman-2.0 scFv Antibody Library (available from Distributed Bio, South San Francisco, Calif.) was used to perform selection with human, cynomolgus or mouse GITR proteins. Selected phage clones from overnight growth were inoculated into wells in 96 well deep well plates containing 1 mL of medium. scFv expression was induced by addition of IPTG (Teknova) to a final concentration of 1 mM. Plates were grown overnight after induction. To prepare periplasmic extracts (PPE), the plates containing the phage clones were centrifuged at 2500 rpm for 10 min, the supernatant discarded and then pellets treated with 75 μL of cold periplasmic extract buffer with appropriate concentration of protease inhibitors (Complete Mini, EDTA-free -Roche Applied Biosciences—Cat No 1836170). After shaking at room temperature for 10 min, 225 μL of cold ddH2O with added protease inhibitor (1 tablet/50 mL) was added per well and mixed by pipetting up and down. PPE extraction was completed by incubation at room temperature for an additional 1 hr. The plates were then centrifuged at 4000 rpm for 20 minutes and 200 μL of PPE supernatant was collected from each well and transferred to a new plate which was then blocked with equal volume of 4% milk (2% final) to prepare blocked PPE extracts. In the meantime, Maxisorp plates (Nunc 442404) coated with relevant antigen (human, mouse or cynomolgus monkey His6-GITR) at 50 μl/well of 1 μg/mL antigen or 2% BSA in PBS as control were prepared for ELISA analyses. Next, 50 μL of each blocked PPE extract was transferred to the pre-blocked ELISA plates coated with the relevant antigens. After incubation and washing 3× with PBS, 50 μL of anti-V5 tag antibody (tag included in the phage display constructs, Invitrogen Cat No R960-25) at 1:5000 dilution in 2% milk was added and the plates were incubated for 1 hr. […] After further washing 3× with PBST, 50 μl/well of TMB substrate was added and the plates were developed until positive controls were visible. The reaction was stopped with 50 μl/well of 2N H2SO4. Plates were read at 450 nm to determine ELISA signal from bound PPE derived scFv.

hGITR-His/BKG [fold over background]	Binder
11.7	B7
9.4	B8
12.1	B1
4	B9
5.5	B10
18.9	B2
13	B11
9.6	B3
9.9	B12
16.4	B4
12.4	B13
16.3	B5
12.7	B14
35.6	B15
35.8	B6
22.2	B16

The binders below were run against T2, mouse His6-GITR in the same assay as above.
Description: as §1

mGITR-His/BKG [fold over background]	Binder
14.6	B7
9.5	B8
1	B1
6.5	B9
1	B10
1.1	B2
24.9	B11
1.4	B3
10.4	B12
1	B4
15.6	B13
1.2	B5
1.1	B14
0.9	B15
1	B6
1.1	B16

Molecular target: T3, cynomolgus monkey His6-GITR
Test: as above
Description: as §1

cGITR-His/BKG [fold over background]	Binder
12	B7
8.9	B8
11.1	B1
5.3	B9
4.2	B10
21	B11
16.1	B3
10.3	B12
9	B4
12.3	B13
8	B5
0.8	B14
23.2	B15
7.5	B6
1.1	B16
